The target of test [1] is T1, recombinant hAng-2 (a recombinant human angiopoietin-2 protein with an attached His tag; R&D Systems) (human, UniProt O15123 19-496).
T1 construct: Bought reagent; not shown: His tag
T1 sequence (looked up): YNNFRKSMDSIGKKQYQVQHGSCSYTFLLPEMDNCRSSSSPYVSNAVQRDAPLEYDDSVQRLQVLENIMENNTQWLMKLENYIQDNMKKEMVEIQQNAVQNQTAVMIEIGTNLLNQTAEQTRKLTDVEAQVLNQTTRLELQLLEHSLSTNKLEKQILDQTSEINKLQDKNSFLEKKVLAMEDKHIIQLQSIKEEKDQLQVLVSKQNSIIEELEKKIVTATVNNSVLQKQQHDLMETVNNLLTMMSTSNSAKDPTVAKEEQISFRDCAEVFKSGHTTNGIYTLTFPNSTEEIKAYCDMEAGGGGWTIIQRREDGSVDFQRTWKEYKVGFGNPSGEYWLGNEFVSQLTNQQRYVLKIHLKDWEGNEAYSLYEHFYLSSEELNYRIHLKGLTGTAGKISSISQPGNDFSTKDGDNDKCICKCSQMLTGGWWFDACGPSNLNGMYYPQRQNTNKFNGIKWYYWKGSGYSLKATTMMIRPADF
The experiment in a line: competitive ELISA: inhibition of 1 nM hAng-2 binding to coated hTie2-Fc. Here is the method:
A 96-well MaxiSorp™ flat-bottom plate (Nunc) was coated with recombinant human Tie2-Fc (hTie2-Fc) (R&D Systems, Inc.) dissolved in DMEM culture containing 50 μg/ml bovine serum albumin (BSA). The hTie-2Fc is a chimeric protein including the water-soluble extracellular region of human Tie-2 and the Fc fragment of human IgG₁. The concentration of hTie2-Fc immobilized was equivalent to 75% of its maximum binding concentration with 1 nM of recombinant hAng-2 (a recombinant human angiopoietin-2 protein with an attached His tag; R&D Systems). The plate was washed with Phosphate Buffered Saline (PBS) containing 0.1% TWEEN-20 five times and blocked with PBS containing 5% BSA at room temperature for two hours. To perform an ELISA experiment for determining whether binding between angiopoietin-2 and Tie-2 was neutralized, each of the monoclonal antibodies SAIT-Ang-2-5 and SAIT-Ang-2-6 prepared according to Example 1 were serially diluted from 100 nM by one-fourth each time with PBS containing 1% BSA and 1 nM hAng-2 and adjusted to a concentration of 6.1 pM. […] The OD₄₅₀ value was read on a plate reader (Molecular Devices). […] Based on the results, each of the monoclonal antibodies SAIT-Ang-2-5 and SAIT-Ang-2-6 of Example 1 was determined to be capable of neutralizing binding between angiopoietin-2 and Tie-2 (refer to Table 1).
(An ELISA detects its analyte on a solid surface through an enzyme-linked reagent.)

The target of test [2] is T1, recombinant hAng-2 (a recombinant human …). The test can be described thus: SPR (BIAcore T100), hAng-2 amine-coupled on CM5 chip, antibody as analyte. The procedure:
The affinity of each of the monoclonal antibodies SAIT-Ang-2-5 and SAIT-Ang-2-6 of Example 1 to angiopoietin-2 was measured using a surface plasmon resonance (SPR) device (BIAcore T100, GE Healthcare). 20 μg/ml recombinant hAng-2 (R&D Systems) was immobilized on a CM5 chip (GE Healthcare) using a pH 4.5 acetate solution and an amine coupling kit (GE Healthcare). Each of the monoclonal antibodies SAIT-Ang-2-5 and SAIT-Ang-2-6 of Example 1 was diluted to eight different concentrations down to 0.78125 nM by serially diluting to ½ each time starting from 100 nM. Then, the antigen/antibody affinity was measured by binding each antibody with the antigen immobilized on the CM5 chip and dissociating the antigen from the antibody using a pH2.2 glycine-HCl solution. […] From the results, the affinity of each monoclonal antibody SAIT-Ang-2-5 and SAIT-Ang-2-6 of Example 1 to angiopoietin-2 was determined.

B1: Monoclonal antibody SAIT-Ang-2-6 (antibody, V domains shown)
VH: QVQLQQPGSELVRPGTSVKLSCKASGYTFTNYLMHWVKQRPGQGLEWIGNIYPGSGATNYDEKFKSKATLTVDISSSTAYMQLISLTSEDSAVYYCTRDDYDGSWFAYWGQGTLVTVSA
VL: DIVMTQSPSSLSVSAGEKVTMTCKSSQSLLISGNQKNFLAWYQQKPGQPPKLLIYGASTRDSGVPDRFTGSGSGTDFTLTISSVQAEDLAVYYCQNDHSYPLTFGTGTKLELK
notes: also called antibody of hybridoma KCLRF-BP-00222
The term IC50 denotes the concentration at which inhibition is half-maximal. As a reminder, the Kd is the concentration at which binding is half-saturated. In general, koff refers to a measure of how fast the partners let go of each other. Broadly, the kon is the second-order rate constant of association. For the molecule B1, the concentration for half-maximal inhibition (IC50) in test [1] is 1.86 nM. In test [2], the Kd came to 1.27 nM, the koff stood at 0.00207 s⁻¹ and the kon is 1.64e+06 M⁻¹ s⁻¹.

B2: Monoclonal antibody SAIT-Ang-2-5 (antibody, V domains shown)
VH: DVQLVESGGGLAQPGGSRKLSCAASGFTFSNFGMHWVRQAPEKGLDWVAYISSGSDTIYYADTVKGRFTISRDNPKNTLFLQMTSLRSEDTAMYYCARESTMITMGYVLDYWGQGTSVTVSS
VL: DIQMTQSPASQSASLGESVTITCLASQTIGTWLAWYQQKPGKSPQLLIYAATSLADGVPSRFSGSGSGTKFSLKISSLQAEDFVSYYCQQLYSIPLTIGAGTKLELK
notes: also called antibody of hybridoma KCLRF-BP-00221
As for B2, the 50% inhibitory concentration (IC50) in test [1] is 0.764 nM. In test [2], the Kd worked out at 0.902 nM, the koff stood at 0.00178 s⁻¹ and the association rate constant (kon) worked out at 1.97e+06 M⁻¹ s⁻¹.

(Values after patent US20110150895A1 (SAMSUNG ELECTRONICS, published 2011).)
